Where a chain is given by its changes, count along the chain named. In names and notes the source's numbering stands.

Series [1] deals with the molecule itself. Put plainly: SEC; isolated monomers at low concentration (~7.5 µM) and high concentrations (54 µM for R221E, 30 µM for wt). (SEC sorts molecules by how far they enter the pores of the column.)
The target in series [2] is T1, rh wild-type Bri2 BRICHOS-mCherry (human, UniProt Q9Y287 113-231).
T1 construct: Bri2 BRICHOS domain, human (rh = recombinant human), Bri2 residues 113-231; Used as isolated oligomers; also called rh Bri2 BRICHOS-mCherry; source: E. coli SHuffle T7, purified (same protocol as R221E; oligomers isolated on Superdex 200 PG); not shown: His6, N-terminal, cleaved; NT*, N-terminal, cleaved; mCherry, C-terminal, kept
T1 sequence (looked up): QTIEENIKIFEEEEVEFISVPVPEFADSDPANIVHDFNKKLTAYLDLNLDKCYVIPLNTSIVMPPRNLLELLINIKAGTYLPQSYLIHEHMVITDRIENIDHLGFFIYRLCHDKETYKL
Nature of the series: not stated; coincubation of R221E monomers with Bri2 BRICHOS-mCherry oligomers at rising molar ratios; release of wild-type monomers followed (Supplementary Fig. 5). Conditions: both partners purified.

B1: rh wild-type Bri2 BRICHOS (domain or fragment, human, UniProt Q9Y287 113-231, looked up)
chain: T1 sequence (looked up)
notes: Bri2 BRICHOS domain, human (rh = recombinant human), Bri2 residues 113-231; also called rh wt Bri2 BRICHOS; wild-type monomers; source: E. coli SHuffle T7, purified (Ni-NTA, thrombin cleavage, second Ni-NTA, SEC); not shown: His6, N-terminal, cleaved; NT*, N-terminal, cleaved
As usually defined, the stoichiometry N is the number of molecules, sites or subunits per partner or assembly. In the case of B1, in series [1], the “stoichiometry N” value is 2.

B2: rh Bri2 BRICHOS R221E monomer (domain or fragment, human, UniProt Q9Y287 113-231, looked up)
chain: T1 sequence (looked up) with R109E
modifications: intramolecular disulfide bond between the two conserved Cys (monomer, by ESI-MS)
notes: Bri2 BRICHOS domain, human (rh = recombinant human), Bri2 residues 113-231, with R221E; Used here for the isolated monomer and as the subunit in the rows on self-association (oligomers, dimers); Measured mass 14,050.2 Da; also called rh Bri2 R221E monomer; source: E. coli SHuffle T7, purified (Ni-NTA, thrombin cleavage, second Ni-NTA, SEC); not shown: His6, N-terminal, cleaved; NT*, N-terminal, …
Consider B2, for which the “molar ratio of mutant to wild-type oligomers at which the release of wild-type monomers saturates” value in series [2] was about 2 mol/mol.

For the origin of these results see article PMC6971075, “Augmentation of Bri2 molecular chaperone activity against amyloid-β reduces neurotoxicity in mouse hippocampus in vitro” (Communications Biology, 2020).
